# Source: publication PMC2533787 (The Journal of Biological Chemistry, 2008)
# Columns and labels:
# [1] = target: Full-length recombinant human TSG-6 (human, UniProt P98066 18-277); experiment: SPR
# [2] = target: CUB_C_TSG6 (the CUB domain and C-terminal 27 amino acids of human TSG-6) (human, UniProt P98066 129-277); experiment: SPR
# Sequence of CUB_C_TSG6 (the CUB domain and C-terminal 27 amino acids of human TSG-6) (P98066 129-277): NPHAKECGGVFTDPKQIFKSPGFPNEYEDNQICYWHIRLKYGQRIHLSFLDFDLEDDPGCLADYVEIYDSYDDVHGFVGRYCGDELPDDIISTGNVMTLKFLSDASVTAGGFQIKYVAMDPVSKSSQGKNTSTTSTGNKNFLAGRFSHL
# Sequence of Full-length recombinant human TSG-6 (P98066 18-277): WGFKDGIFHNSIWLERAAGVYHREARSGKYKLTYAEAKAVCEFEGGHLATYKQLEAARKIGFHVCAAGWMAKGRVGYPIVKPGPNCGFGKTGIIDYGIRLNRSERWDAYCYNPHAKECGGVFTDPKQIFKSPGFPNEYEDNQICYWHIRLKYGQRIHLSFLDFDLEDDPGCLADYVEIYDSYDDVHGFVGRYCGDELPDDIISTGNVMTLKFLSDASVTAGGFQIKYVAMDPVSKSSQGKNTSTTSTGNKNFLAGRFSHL
Kd [1],Kd [2],Binder
1.97 µM,–,"soluble receptor activator of NF-κB ligand (ligand, UniProt O14788 140-317, looked up) IRAEKAMVDGSWLDLAKRSKLEAQPFAHLTINATDIPSGSHKVSLSSWYHDRGWAKISNMTFSNGKLIVNQDGFYYLYANICFRHHETSGDLATEYLQLMVYVTKTSIKIPSSHTLMKGGSTKYWSGNSEFHFYSINVGGFFKLRSGEEISIEVSNPSLLDPDQDATYFGAFKVRDID"
0.184 µM,10.8 µM,"BMP-14 (ligand, UniProt P43026 382-501, looked up) APLATRQGKRPSKNLKARCSRKALHVNFKDMGWDDWIIAPLEYEAFHCEGLCEFPLRSHLEPTNHAVIQTLMNSMDPESTPPTCCVPTRLSPISILFIDSANNVVYKQYEDMVVESCGCR"
0.22 µM,2.54 µM,"bone morphogenetic protein-2 (ligand, UniProt P12643 283-396, looked up) QAKHKQRKRLKSSCKRHPLYVDFSDVGWNDWIVAPPGYHAFYCHGECPFPLADHLNSTNHAIVQTLVNSVNSKIPKACCVPTELSAISMLYLDENEKVVLKNYQDMVVEGCGCR"
0.236 µM,6.88 µM,"BMP-13 (ligand, UniProt Q6KF10 336-455, looked up) TAFASRHGKRHGKKSRLRCSKKPLHVNFKELGWDDWIIAPLEYEAYHCEGVCDFPLRSHLEPTNHAIIQTLMNSMDPGSTPPSCCVPTKLTPISILYIDAGNNVVYKQYEDMVVESCGCR"
